# Data reported in patent publication US20230265151A1, “GIP/GLP1 CO-AGONIST COMPOUNDS” (priority 2020, published 2023).
# Substitutions are numbered along the chain they refer to.
# T1: human GIP receptor (human, UniProt P48546 22-466)
# T1 sequence (looked up): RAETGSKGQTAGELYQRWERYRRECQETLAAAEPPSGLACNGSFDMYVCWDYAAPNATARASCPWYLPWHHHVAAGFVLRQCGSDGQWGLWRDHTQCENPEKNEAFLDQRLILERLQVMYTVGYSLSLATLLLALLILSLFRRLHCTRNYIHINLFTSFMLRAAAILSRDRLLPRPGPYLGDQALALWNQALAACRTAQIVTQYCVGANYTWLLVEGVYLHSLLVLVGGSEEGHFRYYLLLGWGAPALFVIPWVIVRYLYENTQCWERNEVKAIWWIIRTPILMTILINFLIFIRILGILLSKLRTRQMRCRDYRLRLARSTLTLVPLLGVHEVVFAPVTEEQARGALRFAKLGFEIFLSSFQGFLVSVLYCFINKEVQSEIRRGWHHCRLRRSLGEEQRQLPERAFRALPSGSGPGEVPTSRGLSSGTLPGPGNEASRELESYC
# B1: Y-Aib-EGT-αMeF(2F)-TSD-4Pal-SI-αMeL-LD-Orn-K((2-[2-(2-Amino-ethoxy)-ethoxy]-acetyl)2-(γ-Glu)-CO-(CH2)12-CO2H)AQ-Aib-EFI-(D-Glu)-αMeY-LIEGK((2-[2-(2-Amino-ethoxy … (peptide)
# peptide: YXEGTXTSDXSIXLDXKAQXEFIXXLIEGKPSSGAPPPS
# modifications: Aib2, αMeF(2F)6, 4Pal10, αMeL13, Orn16, Aib20, D-Glu24, αMeY25; acylated K17, K30 (groups as in name); C-terminal amide
# B2: Y-Aib-EGT-αMeF(2F)-TSD-4Pal-SI-αMeL-LD-Orn-K((2-[2-(2-Amino-ethoxy)-ethoxy]-acetyl)2-(γ-Glu)-CO-(CH2)14-CH3)AQ-Aib-EFI-(D-Glu)-αMeY-LIEGK((2-[2-(2-Amino-ethoxy) … (peptide)
# peptide: B1 peptide
# modifications: Aib2, αMeF(2F)6, 4Pal10, αMeL13, Orn16, Aib20, D-Glu24, αMeY25; acylated K17, K30 (groups as in name); C-terminal amide
# B3: Y-Aib-EGT-αMeF(2F)-TSDY-Aib-I-αMeL-LD-Orn-K((2-[2-(2-Amino-ethoxy)-ethoxy]-acetyl)2-(γ-Glu)-CO-(CH2)12-CO2H)AQ-Aib-EFI-(D-Glu)-αMeY-LIEGGK((2-[2-(2-Amino-ethoxy … (peptide)
# peptide: B1 peptide with X10Y, S11X, K30G, P31K
# modifications: Aib2, αMeF(2F)6, Aib11, αMeL13, Orn16, Aib20, D-Glu24, αMeY25; acylated K17, K31 (groups as in name); C-terminal amide
# B4: Y-Aib-EGT-αMeF(2F)-TSD-Ac6c-SI-αMeL-LD-Orn-K((2-[2-(2-Amino-ethoxy)-ethoxy]-acetyl)2-(γ-Glu)-CO-(CH2)12-CO2H)AQ-Aib-EFI-(D-Glu)-αMeY-LIEGGK((2-[2-(2-Amino-ethox … (peptide)
# peptide: B1 peptide with K30G, P31K
# modifications: Aib2, αMeF(2F)6, Ac6c10, αMeL13, Orn16, Aib20, D-Glu24, αMeY25; acylated K17, K31 (groups as in name); C-terminal amide
# B5: Y-Aib-EGT-αMeF-TSD-αMeF-SI-αMeL-LD-Orn-K((2-[2-(2-Amino-ethoxy)-ethoxy]-acetyl)2-(γ-Glu)-CO-(CH2)12-CO2H)AQ-Aib-EFI-(D-Glu)-αMeY-LIEGGK((2-[2-(2-Amino-ethoxy)-e … (peptide)
# peptide: B1 peptide with K30G, P31K
# modifications: Aib2, αMeF6, αMeF10, αMeL13, Orn16, Aib20, D-Glu24, αMeY25; acylated K17, K31 (groups as in name); C-terminal amide
# B6: Y-Aib-EGT-αMeF(2F)-TSD-4Pal-SK((2-[2-(2-Amino-ethoxy)-ethoxy]-acetyl)2-(γ-Glu)-CO-(CH2)12-CO2H)-αMeL-LD-Orn-K((2-[2-(2-Amino-ethoxy)-ethoxy]-acetyl)2-(γ-Glu)-CO … (peptide)
# peptide: B1 peptide with I12K, K30G
# modifications: Aib2, αMeF(2F)6, 4Pal10, αMeL13, Orn16, Aib20, D-Glu24, αMeY25; acylated K12, K17 (groups as in name); C-terminal amide
# B7: Y-Aib-EGT-αMeF(2F)-TSD-Ac5c-SI-αMeL-LD-Orn-K((2-[2-(2-Amino-ethoxy)-ethoxy]-acetyl)2-(γ-Glu)-CO-(CH2)12-CO2H)AQ-Aib-EFI-(D-Glu)-αMeY-LIEGGK((2-[2-(2-Amino-ethox … (peptide)
# peptide: B1 peptide with K30G, P31K
# modifications: Aib2, αMeF(2F)6, Ac5c10, αMeL13, Orn16, Aib20, D-Glu24, αMeY25; acylated K17, K31 (groups as in name); C-terminal amide
# B8: Y-Aib-EGT-αMeF-TSD-4Pal-SI-αMeF-LD-Orn-K((2-[2-(2-Amino-ethoxy)-ethoxy]-acetyl)2-(γ-Glu)-CO-(CH2)12-CO2H)AQ-Aib-EFI-(D-Glu)-αMeY-LIEGGK((2-[2-(2-Amino-ethoxy)-e … (peptide)
# peptide: B1 peptide with K30G, P31K
# modifications: Aib2, αMeF6, 4Pal10, αMeF13, Orn16, Aib20, D-Glu24, αMeY25; acylated K17, K31 (groups as in name); C-terminal amide
# B9: Y-Aib-EGT-αMeF(2F)-TSD-aMeV-SI-αMeL-LD-Orn-K((2-[2-(2-Amino-ethoxy)-ethoxy]-acetyl)2-(γ-Glu)-CO-(CH2)12-CO2H)AQ-Aib-EFI-(D-Glu)-αMeY-LIEGGK((2-[2-(2-Amino-ethox … (peptide)
# peptide: B1 peptide with K30G, P31K
# modifications: Aib2, αMeF(2F)6, αMeV10, αMeL13, Orn16, Aib20, D-Glu24, αMeY25; acylated K17, K31 (groups as in name); C-terminal amide
# Target: human glucagon receptor (human, UniProt P47871 26-477)
# Assay: cell-based or functional assay
row,Binder,cAMP EC50 (1.0% HSA) [nM]
1,B1,> 9950
2,B2,> 9950
3,B3,> 9950
4,B4,> 9950
5,B5,> 9950
6,B6,> 9950
7,B7,> 9950
8,B8,> 9950
9,B9,> 9950

# Target: T1, human GIP receptor
# Assay: cell-based or functional assay
Binder,cAMP EC50 (1.0% HSA) [nM],cAMP Emax (1.0% HSA) [%]
B1,1.12,–
B2,0.444,–
B3,1.81,91.4
B4,0.865,–
B5,13.7,72.5
B6,2.08,93
B7,3.53,–
B8,12.8,73.3
B9,18.6,–

# Target: human GLP-1 receptor (human, UniProt P43220 24-463)
# Assay: cell-based or functional assay
Binder,cAMP Emax (1.0% HSA) [%],cAMP EC50 (1.0% HSA) [nM]
B1,103,–
B2,103,–
B3,–,27.8
B4,–,20.3
B5,–,387
B6,–,60.4
B7,89.3,13.2
B8,–,261
B9,–,37.8
